The results in this text go back to the nanobody polyreactivity screen of Harvey et al. (2022).

The series is described as follows: yeast display, Sf9 membrane polyspecificity reagent, FACS + sequencing; frameworks hold sequencing errors. The essentials:
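Synthetic nanobody libraries on Saccharomyces cerevisiae BJ5465 were galactose-induced for 36–48 hours, stained 1 hour at 4 °C with 10% biotinylated, detergent-solubilized Sf9 membrane reagent and enriched on streptavidin microbeads. FACS then separated cells into low and high (top ~1%) gates by anti-HA (expression) and streptavidin (reagent binding) fluorescence. Genes were colony-PCR amplified, MiSeq 2 × 250 sequenced and CDR-length filtered. A clone's polyreactivity label is that of its gate of origin.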
For “QVQLVESGGGLVQAGGGLRLSCAASGRTFTYNAMGWYRQAPGKERELVAAITYDGGGTYADSVKGRFTISRDNAKNTVYLQMNSMKPEDSAVYYCNKGPDPGSFYDYWGQGTQVTVSS”, the “polyreactivity (PSR sort gate)” value is reported as “low polyreactivity”.
Consider “QVQLVESGGGLVQAGGSLRLSCAASGRTFSVNAMGWYRQAPGKERELVAAISWDGGSTYYADSVKGRFTISRDNAKNTVYLQMNSLKPVDTAVYYCNKDLYYAYDYWGQGTQVTVSS”, for which the “polyreactivity (PSR sort gate)” value is given as “low polyreactivity”.
Take “QVQHVESGGGLVQAGGSLRLSCAASGGTFVWYAMGWYRQAPGKERELVAAISSSGGRTYYADSVKGRFTISRDNAKNTVYLQMNSLKPEDTAVYYCNAAPYYVLYLLWSSNTYDYWGQGTQVTVSS”: the “polyreactivity (PSR sort gate)” value is reported as “high polyreactivity”.
For the sequence “QVQLVESGGGLVQSGGSLRLSCAASGRIFDYNAMGWYRQAPGKERELVAAINSGGSTYADSVKGRFTISRDNAKNTVYLQMNSLKPEDTAVYYCNATPQFATFTYDYCGQGTQVTVSS”, the “polyreactivity (PSR sort gate)” value was “low polyreactivity”.
To “QLQLVESGGGLVQAGGSLRLSCAASGRIFDYYAIGWYRQAPGKERQLVATINFSDGSTYYADSVKGRFTISRDNAKNTVYLQMNSLKPEDTAVYYCAAAGWEPYDSLDMNYWGQGTQVTVSS” belongs “low polyreactivity”.
To “QVQLVESGGGLVQAGGSLRLSCAASGSTLQVYAMGWYREAPGKERELVAAISKSGGRTYYADSVKGRFSISRDNAKNTFYLQMNSLKPEDTAVYYCAADVGTAQSTYGYWGQGTQVTVSS” belongs “high polyreactivity”.
“QVQHVESGGGLVQAGGSLRLTCAATGSTFRDNAMRWYRQAPGKERELVAAIRIGGDGTYYADSVKGRFTISRDNAKNTVYLQMNSLKPEDTAVYYCAVDTEKGWRMYYWGQGTQVTVSS”: the “polyreactivity (PSR sort gate)” value was “low polyreactivity”.
To “QVQLVESGGGLVQAGGSLRISSAASGRTFFTNAKGWYRQAPGKERELVAVITYRGDSTYADSVKGRFTISRDNAKNTVYLQMNSLKPEDTAVYYCNAEFRGGRWFTYDYWGHGTQVTVSS” belongs “low polyreactivity”.
With “QVQLVESGGGLVQAGGSLRLSCAASGRTFYKNTMGWYIQAPGKERELVATISQRGGSTYYADSVKGRFTISRDNAKNTVYLQMNSLKPEDTAVYYCNARKYTQSIHYDYWGQGTQVTVSS”, the “polyreactivity (PSR sort gate)” value is listed as “high polyreactivity”.
For “QVQLLESGGGLVQAGGSLRLTCAASGFIFDQYGMGWYRQAPGKERELVASITSTGSTYYADSVKGRFTISRDNAKNTVYLQMNSLKPEDTAVYYCATDSYDGMDYWGHGTQVTVSS”, the “polyreactivity (PSR sort gate)” value was “low polyreactivity”.
For the sequence “QVQLVESGGGLVQAGGSLRLSCAASGSIFYRNAMGGYRQAPGKERELVAAIAGTGGSTYYADSVKGRFTISRDNAKNTVYLQMNSLKPEDTAVYYCASGVTYRHDYWRQGTQVTVSS”, the “polyreactivity (PSR sort gate)” value is reported as “high polyreactivity”.
For the sequence “QVQLVESGGGLVQAGGSLLLSCAASGRIFDVYALGWYRQAPGTEREWVAAITWRVGSTYYADSVKGRFTISRDTAKNTVYLQMNSLKPEDTAVYYCAVDSFLVYSAVRPYDYWGQGTQVTVSS”, the “polyreactivity (PSR sort gate)” value is “low polyreactivity”.
Consider “QVQLVESGGGLVQAGGSLRLSCAASGRIFYPYAMGWYIQAPGKEREFVATIRARCGDSTSYADSVKGRFTISRDIAKNTVYLQMNSLKPEDTAVYYCAALFYTYRWRYYVYHMDYWGQGTQVTVSS”, for which the “polyreactivity (PSR sort gate)” value is “low polyreactivity”.
Take “QVQLVESGGGLVQAGGSLRLSCAASGSTFSRYTMGWYRQAPGKERELVAAIRRSGASTYYADSVKGRFTISRDNAKNTVYLQMNSLKPEDTAVYYCAVGRYRYGYWGQGTQVTVSS”: the “polyreactivity (PSR sort gate)” value is reported as “high polyreactivity”.
Take “QVQLVESGGGLVQAGGSLRLSCAASRFIFSSYVMGRYRQAPGKERELVAASRSGGSTNYADSVKGRFTISRDNAKNTVYLQMNSLKPEDTAVYYCAARGRLGQGYYYWGQGTLVTVSS”: the “polyreactivity (PSR sort gate)” value is on record as “low polyreactivity”.
To “QVQLVESGGGLVQAGGSLRLSCAASGRTFWGITMGWYRQAPGKERELVASITYSGGRTYYADSVKGRFTISRDNAKNTVYLQMNSLKPEDTAVYYCAATLYRYRYFGYDYWGQGTQVTVSS” belongs “high polyreactivity”; to “QVQLVESGGGLVQAGGSLRLSCAASGRIFQYNTMGWYRQAPGKERELVARISWSGGSTRYADSVKGRFTISRDNAKNTVDLQMNSLKPEETEVYYCAVQEAYRYAHAYYYWGQGTQVTVSS”, “high polyreactivity”.
For the sequence “QVQLVESGGGLVQAGGSLRLSCAASGRIFKTYAMGWYRQAPGKERELVAAITASGGRTYYADSVKGRFTISRDNAKNTVYLQMNSLTPEDSAVYYCAAPLLRDLRSPYSYNYWGQGTQVTVSS”, the “polyreactivity (PSR sort gate)” value was “low polyreactivity”.
Turning to “QVQLVESGGGLVQAGGSLRLSSAASGRTFGKYAMGWYRQAPGKESELVAAITNSGGSTYYADSVKGRFTISRDNAKNTVYLQMISLKPEDTAVYYCNRLGYRGPSILNHMGYWGQGTQVTVSS”, the “polyreactivity (PSR sort gate)” value is given as “high polyreactivity”.
For the sequence “QVQLVESGGGLVQAGGSLRLSSAASGRTFYSNAMGWSRQAPGKERELVAAITSTDDSTYYADSVKGRFTISRDNAKNTVYLQMNSLKPEDTAVYYCNTDGLIAIRCVWWVEYDYWGQGTQVTVSS”, the “polyreactivity (PSR sort gate)” value is “low polyreactivity”.
Consider “QVQLVESGGGLVQAGGSLRLSCAASGFTFQYYAMGWYRQAPGKERELVAAITRGDSTNYADSVKGRFTISRDNAKNTVYLQMNSLKPEDTAVYYCAKSVRYPASDYWGQGTQVTVSS”, for which the “polyreactivity (PSR sort gate)” value was “low polyreactivity”.
To “QVQLVESGGGLVQAGGSLRLSCAASGSIFDRNAMGWYRQAPGKERELVSAISRGGRTYYADSVKGRFTISRDNAKNTVYLQMNSLKPEDTAVYDCAAGYPSAWAYTTDDYWGQGTQVTVSS” belongs “low polyreactivity”.
In the case of “QVQLVESGGGLVQAGGSLRLSCAASGSIFHYYAMGWYRQAPGKVRELVAAISSVGSTYYADSVKGRFTISRDYAKNTVYLQMNSLKPEDTAVYYCAAEAYAKRYVDRYSWYYYWGQGTQVTVSS”, the “polyreactivity (PSR sort gate)” value is “high polyreactivity”.
To “QVQHVESGGGLVQAGGSLRLSCAASGLTFYSYAMGWYRQAPGKERELVATISGGGSTTYADSVKGRFTISRDNAKNTVYLQMNSLKPEDTAVYYCAARSNHYRGWPVPLGYWGQGTQVTVSS” belongs “high polyreactivity”; to “QVQLVESGGGLVQAGGSLRLSCAASGRILGFYAMGWYRQAPGKEMELVARINWSGTRTYYADSVKGRFTISRDNAKNTVYLQMNSLKPEDTAVYYCAAERYPYGVTYSKLDYWGQGTQVTVSS”, “high polyreactivity”.
To “QVQLVESGGGLVQAGGSLRLSCAASGSTFAGYAMGWYRQAPGKERELVATITYSGGSTYYADSVKGRFTISRDNAKNTVYLQKNSLKPEDTAVYYCAKKASYWWGYEYWGQGTQVTVSS” belongs “low polyreactivity”.
To “QVQLVESGGGLVQAGGSLRLSCASSGSTFTPNAMGWYRQAPGKERELVASNYTTGGNTYYADSVKGRFTNSRDNAKNTVYLQMNSLKPEDTAVYYCNARQALVWKWSWYSPGYDYWGQGTQVTVSS” belongs “low polyreactivity”; to “QVQLVESGGGLVLAGGSLRLSCAASGSTFVQNAMGWYRQAHGKERELVAAITFGGGSTYYADSVKGRFTISRDNAKNTVYLQMNSLKPEDTAVYYCAVEVGNPQLAYSYDYWGQGTQVTVSS”, “low polyreactivity”.
Turning to “QVQLVESGGGLVQAGGSLRLSCAASGRILAANAMGWYRQAPGKERELVAAISWSGGRTYYADSVKGRFTISRDNAKNTVYLQMNSLKPEDTAVYYCNKLALAGYDYWGQGTQVTVSS”, the “polyreactivity (PSR sort gate)” value is listed as “high polyreactivity”.
For “QVQLVESGGGLVQAGGSLPLSCAASGRTFGSYVMRWYRQAPGKERELVATISRRGGTTYYADSVKGRFTISRDNAKNTVYLQMNSLKPEDTAVYYCAAKYFATRYDYWGQGTQVTVSS”, the “polyreactivity (PSR sort gate)” value is “high polyreactivity”.
Turning to “QVQLVESGGGLVQAGGSLRLSCAASGFTLSYYAMGWYRQAPGKERELVASISAIGGITYYADSVKGRFTISRDNAKNTVYLQMNSLKPEDTAVYYCARQGRRYRRFDSWGQGTQVTVSS”, the “polyreactivity (PSR sort gate)” value was “high polyreactivity”.
As for “QVQLVESGGGLVQAGGSLRLSCAASGSTFWGYALGWYRQAPGKERELVASIRRGASTTYADSVKGRFTISRDNAKNTVYLQMNSLKPEDSAVYYCAKPGYFRSHDYWGQGTQVTVSS”, the “polyreactivity (PSR sort gate)” value is listed as “low polyreactivity”.
Turning to “QVQLVESGGGLVQAGGRLRLSCAASGITFFWNAMGWYRQAPGKERELVAAISSGAGTTYADSVKGRFTISRDNAKNTVYLQMNSLKPEDTAVYYCAKRVDAYGWWGRSSGVLSDYWGQGTQVTVSS”, the “polyreactivity (PSR sort gate)” value is on record as “low polyreactivity”.
As to “QVQLVDSGGGLVQAGGSLRLSCAASGRNFSPYTMGWYRQAPGKVREMVAAIRSGDGRTYYADSVKGRFTISRDNAKNTVYLQMNSLKQEDTAVYYCAARRGKVYVSGNGYWGQGTQVTVSS”, the “polyreactivity (PSR sort gate)” value is recorded as “high polyreactivity”.
Consider “QVHLVESGGGLVQAGGGLRLSSAASGFIFSPNAMGWYRQAPGKEREYVAAISYSGTSTSYADSVKGRFTISRDNAKNTVYLQMNSLKPEDTAVYYCAAGRSNSYSPRRRVTYGYNYWGQGTQVTVSS”, for which the “polyreactivity (PSR sort gate)” value was “high polyreactivity”.
“QVQLVESGGGLVQAGGSLRLSCAASGFIFDHYAMGWYRQAPGKERELVAAISGSGGSTYYADSVKGRFPISRDNAKNTVYLQMNSLKPEDTAVYYCAARPGSKYAQRGYWGQGTHVTVSS”: the “polyreactivity (PSR sort gate)” value was “high polyreactivity”.
“QVQLVESGGGLVQAGGSLRLSCAASGSIFRDNGMGWYRQAPGKERELVAAINSGDSTYYADSVKGRFTISRDNAKNTVYLQMNSLKPEDTAVYYCNADDRRALSQRQYDWYDYWGQGTQVTVSS”: the “polyreactivity (PSR sort gate)” value is “low polyreactivity”.
In the case of “QVQLVESGGGLVQAGGSLRLSCAASGFTFRYYAMGWYRQAPGKERELVASISARGGITNYADSVKGRFTISRDNAKISVYLQMNSLKPEDTAVYYCAADVFSWYGEYDYWGQGTQVTVSS”, the “polyreactivity (PSR sort gate)” value is recorded as “high polyreactivity”.
For “QVQLVESGGGLVQAGGSLRLSCAASGRTFWYNAMGWYRQAPGKERELVAAISSSGGTTYYADSVKGRFTISRDNAKNTVYLQMNSLIPEDTAVYYCARQRRSVNVYKNIYKYWGQGTQVNVSS”, the “polyreactivity (PSR sort gate)” value is “high polyreactivity”.
To “QVQLVESGGGLVQAGGSLRLSCAASGITFPYYAKGWYRQAPGKERELVAGISRSGGRTYYADSVKGRFTISRDNAKNTVYLQMNSLKPEDTAVYYCNARKNLLSVTFDYWGQGTQVTVSS” belongs “high polyreactivity”; to “QVQLVESGGGLVQAGGSLRLSCAASGSIFYSYAKGSYLQAPGKERELVADITFSGVSTYYADSVKGRFTISRDNAKNTVYLQMKSLKTEDTAVYYGAADGVSRWYLYRWYDYDYWGQGTQVTVSS”, “low polyreactivity”.
